Reference: the supplement of paper PMC12042874
± gives the uncertainty stated by the source.

experiment: amyloid nucleation score (Sup35N fusion, yeast selection) (log enrichment); library NNK3; higher = more nucleation; inactive = no reads after selection
Method in brief: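 On medium lacking adenine and uracil, psi-negative yeast expressing peptides of 20 random codons fused to Sup35N were grown 7 days at 30°C after a 24-hour induction with 100 μM copper sulfate. Illumina sequencing of input and output plasmid inserts gave the reads, and sequences under 100 input reads were excluded. The nucleation score is the DiMSum log enrichment of output over input reads, centred on the mode score of non-aggregating sequences.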

Row | Substance | amyloid nucleation score
1 | VLLKALVIFDY | inactive
2 | VLNSRTTPFI | inactive
3 | VLRETLR | inactive
4 | VLRKLYLSPDSGVNYCGDPV | inactive
5 | VLSRGDMATFTTVMMRRDAH | inactive
6 | VLVAHMRGEPGVANEWPLFQ | inactive
7 | VLVCTLVTSLTDAKFRKYFS | 0.813 ± 0.2
8 | VLVEVEIYLILFIVYAW | inactive
9 | VLVGDDCDRTVANVQ | inactive
10 | VLVNHGFYW | inactive
11 | VLYVIRNYSGDG | 1.62 ± 0.096
12 | VMCLRRMSFQCMQSQMEALA | inactive
13 | VMCVFLLYI | 1.08 ± 0.11
14 | VMFLFGYNKVFKLSICWIGS | inactive
15 | VMLCHFDMYF | 1.45 ± 0.092
16 | VMMYFQFMPLKPSRD | 1.25 ± 0.12
17 | VMTIGTRV | inactive
18 | VMWEPFAYLFISSWRYVSLK | inactive
19 | VNGTLGFIGRETLYGTTRLT | inactive
20 | VNHVIQNLVSNRSTWGICCT | inactive
21 | VNIAETFSRHDPSHLWSYKS | inactive
22 | VNIWLPKTPLQLKLNLPSSM | -0.829 ± 1.1
23 | VNKNVMWHDNNKFFHPFRAI | 1.6 ± 0.082

Row | Substance | amyloid nucleation score
24 | VNLHLTVEQLSMLYRTNANV | 1.07 ± 0.14
25 | VNNKHVVWCSVHGGSSR | inactive
26 | VNRKLWGT | inactive
27 | VNVMWKPLGLHIVPMFAFGK | 1.13 ± 0.16
28 | VNVNSKYNVFLLMCRGVEVI | inactive
29 | VPDRCLD | inactive
30 | VPEVG | inactive
31 | VPGLHLSNPTAELDMQI | inactive
32 | VPGSSNVTCLYEGLSSYNTR | inactive
33 | VPQNVGVLWSRRQEAVVLVS | inactive
34 | VQSTVVQVGDWY | inactive
35 | VQTWWLNMCLLPRKSTYTHL | inactive
36 | VQWAEVAEMKGWGVANAWW | inactive
37 | VRGQFSSSVLGRCLGWAWTR | inactive
38 | VRHGSMTDCYFLHTLDRREC | inactive
39 | VRISHYA | inactive
40 | VRIWLNVYGVVSLGGRRLLV | inactive
41 | VRKPECSVVWVNQCWVQPPY | 2.15 ± 0.062
42 | VRLVAMCWGHLDKNRALRRG | inactive
43 | VRNVKSNANCCFN | inactive
44 | VRQKALRNPQL | inactive
45 | VRVMNGTRTSCLVR | -0.834 ± 1
46 | VRVSLDRTGYKSSCHVVSRG | inactive

Row | Substance | amyloid nucleation score
47 | VRVVVISPGRSCRVNPSDSP | inactive
48 | VRWYCS | inactive
49 | VRYRVIHMDTFVS | 0.933 ± 0.16
50 | VSCDEMHKINFYLKANVVLV | inactive
51 | VSFMFFACDTFFSHAVIRTR | inactive
52 | VSFRYAYYWFCRTMMTAAKR | inactive
53 | VSGYNW | inactive
54 | VSIHCGRVYDWEGGFGERVN | inactive
55 | VSLGFEFMGFHAGW | 1.09 ± 0.15
56 | VSLILFGRIFFHL | inactive
57 | VSLLRGVLGLVV | inactive
58 | VSMFMNRNQKSIKNRVRHYM | inactive
59 | VSMSLDCM | inactive
60 | VSNCFTSLQT | inactive
61 | VSRHKFFRHSCAN | inactive
62 | VSRKRQLWEKCGTFVQRASM | inactive
63 | VSSFFSLPCTSAPVIDWVGV | inactive
64 | VSSILQRIISYFRTARFNYL | inactive
65 | VSSSDNSVEIDRVHKMSMVE | inactive
66 | VSSWNSSMMIYMVLCIRMSG | inactive
67 | VSTCT | inactive
68 | VSTGTYFSVIKEEVRLGLLH | 0.537 ± 0.36
69 | VSVDWGLPRFGYTYKIL | inactive

Row | Substance | amyloid nucleation score
70 | VSVLCMYFVVGPKMVRVSYG | inactive
71 | VSVRVDLILKVVRRSSVWFT | inactive
72 | VSYSNDKGIWIYGTSLYPGA | inactive
73 | VTCWMVAVELKKIHYQCIES | inactive
74 | VTEYKFKVFLPMRKRSVIMV | inactive
75 | VTKPFTIKGTI | inactive
76 | VTKVYGDVVLEWRHDVLFGG | 0.503 ± 0.32
77 | VTLVNKKGWSFATAITMWKR | inactive
78 | VTQSNGVHKGAR | inactive
79 | VTRISGTETSDVYINI | 0.101 ± 0.6
80 | VTRPVVSQ | inactive
81 | VTSTQVMNMLD | inactive
82 | VTVSHCRIRFFRLESDDGLC | -0.218 ± 0.88
83 | VTYYKSMYTREHFWTLGNSF | 0.69 ± 0.21
84 | VVEFRNFLGIM | inactive
85 | VVGFDSCGRWEVNVSYDSGT | inactive
86 | VVGIKKDRNNTYDSSWLASC | inactive
87 | VVGSDGMFTCSCLREVR | inactive
88 | VVHYSLVVPSDGW | inactive
89 | VVLTMMHRHLYVSCKLRFCS | inactive
90 | VVMHAYCWLWNYSDFSIMGS | 1.57 ± 0.094
91 | VVMRFCWRKSTIVISFVTVM | inactive
92 | VVMSWYLVVTI | 0.883 ± 0.26

Row | Substance | amyloid nucleation score
93 | VVQGGGELVWFMFYDARCGT | inactive
94 | VVSAV | inactive
95 | VVSFNPIKCIVCGV | inactive
96 | VVSHGF | inactive
97 | VVSIAIGKYNDRSMWW | 1.75 ± 0.071
98 | VVSMQYCLFS | 2.81 ± 0.072
99 | VVTHLALSKRSSAVTIFAWG | inactive
100 | VVVGIGVAALYEPV | inactive
101 | VWEFICVGVLC | 2.65 ± 0.05
102 | VWGAHPLFGSISVARTISNW | inactive
103 | VWPNGSKKYGLSRMTANSLL | inactive
104 | VWQWKGRCHVTNRYWYFCSS | inactive
105 | VWSEDIYFCIILRLMDKS | inactive
106 | VWSVASYPSGPGKFCGGMTE | inactive
107 | VWVDFGFPVHMIIL | inactive
108 | VYASCTFNIEKVLSVVQTTF | 1.52 ± 0.087
109 | VYCEPNMP | -0.163 ± 1.1
110 | VYESFLLMLFYFRSDCKKKR | inactive
111 | VYETELTFSARPRFCWCC | 0.094 ± 0.59
112 | VYGASTLSAHMWR | inactive
113 | VYGYELRCDLKGMLLS | inactive
114 | VYIMYLSGCCRCHVPMNEGT | 2.05 ± 0.073
115 | VYLDYGGLHLRVLHTCRFYC | inactive

Row | Substance | amyloid nucleation score
116 | VYLYIWQKVSGHHYGFQMDW | inactive
117 | VYMGTVWCSRAI | inactive
118 | VYPSTSTLNYVMLQLTPVNS | inactive
119 | VYSDDVKVVYMYGTNPFDTV | inactive
120 | VYSEFWVHMLLLSFRVIYIL | inactive
121 | VYSMEPECIW | inactive
122 | WAGGSDPRCNFKCLCVKGFC | inactive
123 | WAVIKLMRSERTVGVWGSNT | inactive
124 | WCFHDGLRAYVNFCRVYATN | inactive
125 | WCLPNCPIVFNMHQLAHLSR | 0.021 ± 0.44
126 | WCNMVRVHMF | inactive
127 | WCPSQDNFWQNFLF | -0.079 ± 0.23
128 | WCPSSSM | inactive
129 | WDAPKCNSVNYLLKDHYHRC | inactive
130 | WDEIIY | inactive
131 | WDIMSRYLCMYIGYTARRCM | inactive
132 | WDKMYDDEGKGIVLEVVFLR | -0.012 ± 0.87
133 | WDNLCGTAFHAVN | inactive
134 | WEGRLDCFSMRWLQMLGSND | inactive
135 | WEILYPEGWFWTFRRSGVGS | inactive
136 | WEKYMRMSGRPMGRFKMTGR | inactive
137 | WFDWVMVTYEGLSTVF | inactive
138 | WFEEATRGRNETS | inactive

Row | Substance | amyloid nucleation score
139 | WFFDTDIFHCEFEKMYYPLV | inactive
140 | WFFTLCSSDQVSRGMR | inactive
141 | WFGKPFYTYSKSSWRMLYQL | inactive
142 | WFISTFDLDRYKFASCSKAW | inactive
143 | WFPMSAKLYAHATHCVPLSL | inactive
144 | WFRTGLAKNSISSGVGVMCH | inactive
145 | WFSYQFV | inactive
146 | WGMICIVYCVGIDMWLYVKC | inactive
147 | WGTLTLCTGDAGLSMTGKWV | 0.399 ± 0.43
148 | WGVHCMSQDVRVWWLSLWGG | inactive
149 | WGVNYMLWDCIYEATLSLIP | inactive
150 | WHCVSFKLNDL | inactive
151 | WHMWMESKLWQPQRATSVFP | inactive
152 | WHSYTKLCGRTSPPSSTLTG | inactive
153 | WHTAKGTWSTGRQEDTGQSR | inactive
154 | WIDGINWLSSLVTAIKHSVK | inactive
155 | WIGVQCP | inactive
156 | WIMWNMRAKNLKLLPARARV | inactive
157 | WKEWLGMGLLVSNAGHKQGG | inactive
158 | WKFINDIASN | inactive
159 | WKGLL | inactive
